Measured values taken from PMC9530591 (eBioMedicine, 2022).

B1: 32D6 (antibody, V domains shown)
VH: QVQLQESGPGLVKPSETLSLTCTVSGGSVNTGSYYWSWIRQPPGKGLEWIAYSSVSGTSNYNPSLKSRVTLTVDTSKNQFSLSVRSVTAADTAVYFCARLNYDILTGYYFFDFWGQGTLVIVSS
VL: QVELTQSPSASASLGTSVKLTCTLSSGHSTYAIAWHQQRPGKGPRYLMNLSSGGRHTRGDGIPDRFSGSSSGADRYLIISSLQSEDEADYYCQTWDAGMVFGGGTKLTVL
B2: 5J8 (antibody, V domains shown)
VH: EVQLVESGPGLVKPSDILSLTCAVSGYSISSNYYWGWIRQPPGKGLEWIGSIYHSGSTYYKPSLESRLGISVDTSKNQFSLKLSFVSAADTAVYYCARHVRSGYPDTAYYFDKWGQGTLVTVSS
VL: SYVLTQPPSVSVAPGETARISCGGNNIGTKVLHWYQQTPGQAPVLVVYDDSDRPSGIPERFSGSNSGNTATLTISRVEVGDEADYYCQVWDISTDQAVFGGGTKLTVL

Target: HA1-trimer (influenza A virus H1N1 …)
Assay: SPR
Settings: both partners purified

| Binder | Kd |
| --- | --- |
| B1 | 0.0445 nM |
| B2 | 0.0531 nM |
